Target: T1, DNAJB6b wt (human, UniProt O75190-2 1-241)
T1 construct: DNAJB6b, human, the 241-residue b isoform of DNAJB6; No tags; also called wt DNAJB6b; unlabelled DNAJB6b
Assay: native gel or EMSA; agarose gel imaged on an IR fluorescence scanner; 5 nM DNAJB6b-CCys-IR680 mixed with unlabelled DNAJB6b-wt to total concentrations of 5 nM to 32 µM
Settings: both partners purified

T1 sequence (O75190 other isoform, or with tags, fused parts or gaps): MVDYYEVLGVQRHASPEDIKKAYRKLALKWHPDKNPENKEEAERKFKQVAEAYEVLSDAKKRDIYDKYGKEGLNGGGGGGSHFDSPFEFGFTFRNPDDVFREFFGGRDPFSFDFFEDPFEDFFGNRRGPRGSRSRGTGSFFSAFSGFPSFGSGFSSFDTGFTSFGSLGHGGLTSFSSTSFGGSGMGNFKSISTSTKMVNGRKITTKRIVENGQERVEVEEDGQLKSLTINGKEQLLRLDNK

B1: DNAJB6b-CCys-IR680 (natural protein)
chain: not shown
modifications: IRdye-680 (maleimide dye) on the engineered C-terminal cysteine
notes: DNAJB6b, human, the 241-residue b isoform of DNAJB6, no tags; a cysteine residue added at the C-terminus (variant CCys); also called IR680-labelled DBAJB6b; DNAJB6-CCys labelled with IRdye680; source: E. coli BL21 DE3 pLysS star, purified as wt with 1 mM DTT in all buffers; labelled with IRdye680 maleimide, free dye removed by SEC
- binding result: binds

From PMC8781954, “High-Efficiency Expression and Purification of DNAJB6b Based on the pH-Modulation of Solubility and Denaturant-Modulation of Size” (Molecules, 2022)
